According to patent publication US6528630:
pKd: −log10 of the molar value. Like-named read-outs stand apart in the source and are kept apart here.

Legend:
[1] = target: α1B-1α2bβ1-2 human neuronal calcium channel (human) (UniProt Q02641); assay: Bmax of 125I-ω-CgTx GVIA binding, against α1B-1β1-2
[2] = target: α1B-1α2bβ1-3 human neuronal calcium channel (human) (UniProt Q02641); assay: Bmax of 125I-ω-CgTx GVIA binding, against α1B-1β1-3
[3] = target: α1B-2α2bβ1-2 human neuronal calcium channel (human) (UniProt Q02641); assay: Bmax of 125I-ω-CgTx GVIA binding, against α1B-2β1-2
[4] = target: α1B-2α2bβ1-3 human neuronal calcium channel (human) (UniProt Q02641); assay: Bmax of 125I-ω-CgTx GVIA binding, against α1B-2β1-3
[5] = target: α1B-1β1-2 human neuronal calcium channel subunit combination (human) (UniProt Q02641); assay: Bmax of 125I-ω-CgTx GVIA binding, against α1B-1 alone
[6] = target: α1B-1β1-3 human neuronal calcium channel subunit combination (human) (UniProt Q02641); assay: as above
[7] = target: α1B-1α2bβ1-3 human neuronal calcium channel (human) (UniProt Q02641); assay: Bmax of 125I-ω-CgTx GVIA binding, against α1B-1α2bβ1-2
[8] = target: α1B-1α2bβ1-2 human neuronal calcium channel (human) (UniProt Q02641); assay: Bmax of 125I-ω-CgTx GVIA binding, against α1B-2α2bβ1-2
[9] = target: α1B-2α2bβ1-3 human neuronal calcium channel (human) (UniProt Q02641); assay: as above
[10] = target: α1B-1α2bβ1-3 human neuronal calcium channel (human) (UniProt Q02641); assay: Bmax of 125I-ω-CgTx GVIA binding, against α1B-2α2bβ1-3
[11] = target: α1B-1α2bβ1-2 human neuronal calcium channel (human) (UniProt Q02641); assay: saturation binding of 125I-ω-CgTx GVIA to transfected HEK293 cells
[12] = target: α1B-1α2bβ1-3 human neuronal calcium channel (human) (UniProt Q02641); assay: as above
[13] = target: α1B-1β1-2 human neuronal calcium channel subunit combination (human) (UniProt Q02641); assay: as above
[14] = target: α1B-1β1-3 human neuronal calcium channel subunit combination (human) (UniProt Q02641); assay: as above
[15] = target: α1B-2α2bβ1-2 human neuronal calcium channel (human) (UniProt Q02641); assay: as above
[16] = target: α1B-2α2bβ1-3 human neuronal calcium channel (human) (UniProt Q02641); assay: as above
[17] = target: α1B-2β1-2 human neuronal calcium channel subunit combination (human) (UniProt Q02641); assay: as above
[18] = target: α1B-2β1-3 human neuronal calcium channel subunit combination (human) (UniProt Q02641); assay: as above
[19] = target: α1B-1α2bβ1-2 human neuronal calcium channel (human) (UniProt Q02641)

125I-ω-CgTx GVIA, sequence (P01522 46-72 limits assumed): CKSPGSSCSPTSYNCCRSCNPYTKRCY
α1B-2α2bβ1-2 human neuronal calcium channel (human), sequence (Q02641 whole entry): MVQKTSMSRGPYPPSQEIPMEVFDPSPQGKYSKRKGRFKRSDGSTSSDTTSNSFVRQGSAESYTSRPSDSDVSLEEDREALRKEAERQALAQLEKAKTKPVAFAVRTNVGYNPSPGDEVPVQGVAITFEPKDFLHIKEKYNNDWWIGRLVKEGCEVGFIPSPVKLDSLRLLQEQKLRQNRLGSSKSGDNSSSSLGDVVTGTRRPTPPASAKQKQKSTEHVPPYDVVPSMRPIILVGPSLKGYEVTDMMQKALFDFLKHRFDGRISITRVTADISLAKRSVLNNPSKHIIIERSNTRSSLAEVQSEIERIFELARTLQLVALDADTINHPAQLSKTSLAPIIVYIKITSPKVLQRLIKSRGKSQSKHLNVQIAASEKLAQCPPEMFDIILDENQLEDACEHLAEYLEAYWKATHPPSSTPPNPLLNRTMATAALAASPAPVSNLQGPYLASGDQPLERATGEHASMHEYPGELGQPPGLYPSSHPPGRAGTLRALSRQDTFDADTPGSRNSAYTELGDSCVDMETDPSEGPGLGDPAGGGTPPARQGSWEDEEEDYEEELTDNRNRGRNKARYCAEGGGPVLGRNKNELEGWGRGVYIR
α1B-1α2bβ1-2 human neuronal calcium channel (human), sequence (Q02641 whole entry): as above
α1B-1β1-3 human neuronal calcium channel subunit combination (human), sequence (Q02641 whole entry): as above
α1B-1β1-2 human neuronal calcium channel subunit combination (human), sequence (Q02641 whole entry): as above
α1B-2α2bβ1-3 human neuronal calcium channel (human), sequence (Q02641 whole entry): as above
α1B-1α2bβ1-3 human neuronal calcium channel (human), sequence (Q02641 whole entry): as above
α1B-2β1-2 human neuronal calcium channel subunit combination (human), sequence (Q02641 whole entry): as above
α1B-2β1-3 human neuronal calcium channel subunit combination (human), sequence (Q02641 whole entry): as above

For “125I-ω-CgTx GVIA (from UniProt P01522 46-72) (peptide)”, the fold change of surface receptor density [1] was 8 fold, the fold change of surface receptor density [2] was 10 fold and the fold change of surface receptor density [3] was 9 fold. For the same substance, the fold change of surface receptor density [4] was 13 fold, the fold change of surface binding [5] was 8 fold and the fold change of surface binding [6] was 10 fold. For the same substance, the fold change of binding capacity [7] was 2 fold, the fold change of binding sites per cell [8] was 2.5 fold and the fold change of binding capacity [9] was 2 fold. The fold change of binding sites per cell [10] was 2.5 fold, the Bmax [11] was 45300 sites/cell and the pKd [11] was 10.26. For the same substance, the Bmax [12] was 91000 sites/cell, the pKd [12] was 10.27 and the Bmax [13] was 5760 sites/cell. It also gave a pKd [13] of 10.75, a Bmax [14] of 8730 sites/cell and a pKd [14] of 10.75. For the same substance, the Bmax [15] was 19400 sites/cell, the pKd [15] was 10.28 and the Bmax [16] was 37700 sites/cell. It also gave a pKd [16] of 10.35, a Bmax [17] of 2130 sites/cell and a pKd [17] of 10.79. It also gave a Bmax [18] of 2940 sites/cell and a pKd [18] of 10.65.
In the case of “ω-CgTx GVIA (from UniProt P01522 46-72) (peptide)”, the pKd [19] was 10.26 and the binding capacity (Bmax) (sites per cell) [19] was 28700.
